The values below come from patent US20220213176A1 (SHANGHAITECH UNIVERSITY, published 2022).

The target in assay [1] is SARS-CoV-2 B.1.617.2 pseudovirus spike (SARS-CoV-2). Nature of the assay: cell-based or functional assay.
For assay [2], the target named is SARS-CoV-2 K417N+E484K+N501Y+D614G mutant pseudovirus spike (spikeΔ19) (SARS-CoV-2, UniProt P0DTC2 14-1254). Nature of the assay: cell-based or functional assay.
Assay [3] concerns the target wild-type SARS-CoV-2 pseudovirus spike (spikeΔ19) (SARS-CoV-2, UniProt P0DTC2 14-1254). The experiment in a line: cell-based or functional assay.
In assay [4] the target is SARS-CoV-2 N501Y+D614G mutant pseudovirus spike (spikeΔ19) (SARS-CoV-2, UniProt P0DTC2 14-1254). The experiment in a line: cell-based or functional assay.
Assay [5] addresses T1, B.1.351 S-RBD (SARS-CoV-2, UniProt P0DTC2 319-541).
T1 construct: also called spike RBD of B.1.351 (Beta Strain)
The experiment in a line: BLI (Octet RED96), biotin B.1.351 S-RBD on SA sensor, 1:1 fit.

In assay [6] the target is T1, B.1.351 S-RBD. Nature of the assay: BLI (Octet RED96), biotinylated B.1.351 S-RBD on SA biosensor, 1:1 binding model.

B1: S-D4 (antibody, V domains shown)
VH: QVQLQESGGGVVQPGRSLRLSCEVSGFTFSDYGMHWVRQAPGKGLEWVAVIWSEGSTEYYADSVKGRFTISRDNSKDTLYLQMNSLRAEDTAVYYCARPGYPTSTDRSPAAAGARQYYYYGMDVWGQGTTVTVSS
VL: NFMLTQPHSVSESPGKTVTISCTRSGGSGAANYVQWYQQRPGSSPTTLIYEDSRRPPGVPDRFSGSVDTSSNSASLTISGLQTEDEADYYCQSYDSSNHVVFGGGTKLTVLG
notes: also called S-D4 dimer; S-D4 IgG4
B1: in assay [1], the “NT50 (B.1.617.2) (nM), pseudovirus neutralization” value (shortened to “NT50 (B.1.617.2) (nM)”) worked out at 0.24 nM. Besides, the “NT50 (B.1.351) (nM), pseudovirus neutralization” value (“NT50 (B.1.351) (nM)” for short) in assay [2] stood at 0.66 nM. Further, in assay [3], the “NT50, wild-type SARS-CoV-2 pseudovirus neutralization” value is 0.48 nM. Moreover, the “NT50, N501Y+D614G spike pseudovirus neutralization” value in assay [4] amounted to 0.042 nM.

B2: S-E6 trimer (T4F) (other)
heavy: QVTLRESGPGLVKPSETLSLTCAVSGGSLSSVNYYWSWIRQHPGKGLEWIGYIYYSGSTNYNPSLKSRVTMSLDTSKNQFSLKLSSVTAADTAVYYCATPGAIMGALHIWGQGTLVTVSSASTKGPSVFPLAPSSKSTSGGTAALGCLVKDYFPEPVTVSWNSGALTSGVHTFPAVLQSSGLYSLSSVVTVPSSSLGTQTYICNVNHKPSNTKVDKKVEPPKSGGGGSGGGGSGGGGSPGSGYIPEAPRDGQAYVRKDGEWVLLSTFLGHHHHHH
light: QAVLTQPSSASSTPGQRVIISCSGSSSNIGSNTVSWYQQVPGAAPKLLIYFDYRRPSGVPDRFSGTRSGTSASLGISGLQSEDEADYYCAAWDDSLSAWVFGRGTKLTVLGGLGGLVDYKGQPKAAPSVTLFPPSSEELQANKATLVCLISDFYPGAVTVAWKADSSPVKAGVETTTPSKQSNNKYAASSYLSLTPEQWKSHRSYSCQVTHEGSTVEKTVAPTECS
notes: also called trimer S-E6; trimeric S-E6
With B2, the Kd with B.1.351 S-RBD [5] came to 580 pM; in the assay with B.1.351 S-RBD [6], 576 pM. Moreover, in assay [1], the “NT50 (B.1.617.2) (nM)” value came out at 0.007 nM.

B3: S-B8 (antibody, V domains shown)
VH: QVQLVQSGGGLIQPGGSLRLSCAASGFTVSLSHMNWVRQAPGKGLEWVSITYGDGNSDYADSVKGRFTISRDNSKNTLYLQMNSLRAEDTAVYYCAREYYYGMDVWGQGTTVTVSS
VL: not shown
notes: also called S-B8 dimer
Regarding B3, the “NT50 (B.1.617.2) (nM)” value in assay [1] amounted to 0.37 nM. In addition, the “NT50 (B.1.351) (nM)” value in assay [2] came to 1.2 nM. Also, the “NT50, N501Y+D614G spike pseudovirus neutralization” value in assay [4] was 0.53 nM.

B4: S-B8 trimer (other)
heavy: QVQLVQSGGGLIQPGGSLRLSCAASGFTVSLSHMNWVRQAPGKGLEWVSITYGDGNSDYADSVKGRFTISRDNSKNTLYLQMNSLRAEDTAVYYCAREYYYGMDVWGQGTTVTVSSASTKGPSVFPLAPSSKSTSGGTAALGCLVKDYFPEPVTVSWNSGALTSGVHTFPAVLQSSGLYSLSSVVTVPSSSLGTQTYICNVNHKPSNTKVDKKVEPPKSGGGGSGGGGSGGGGSPGSGYIPEAPRDGQAYVRKDGEWVLLSTFLGHHHHHH
light: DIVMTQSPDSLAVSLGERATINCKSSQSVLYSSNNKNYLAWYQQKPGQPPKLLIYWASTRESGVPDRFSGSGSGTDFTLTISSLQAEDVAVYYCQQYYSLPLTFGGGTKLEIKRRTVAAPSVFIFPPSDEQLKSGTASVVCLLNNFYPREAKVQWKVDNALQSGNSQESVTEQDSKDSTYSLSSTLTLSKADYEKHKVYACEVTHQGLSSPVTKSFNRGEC
On to B4, for which the “NT50 (B.1.617.2) (nM)” value in assay [1] came to 0.15 nM. In addition, in assay [2], the “NT50 (B.1.351) (nM)” value was found to be 0.35 nM.

B5: S-E6 (antibody, V domains shown)
VH: QVTLRESGPGLVKPSETLSLTCAVSGGSLSSVNYYWSWIRQHPGKGLEWIGYIYYSGSTNYNPSLKSRVTMSLDTSKNQFSLKLSSVTAADTAVYYCATPGAIMGALHIWGQGTLVTVSS
VL: QAVLTQPSSASSTPGQRVIISCSGSSSNIGSNTVSWYQQVPGAAPKLLIYFDYRRPSGVPDRFSGTRSGTSASLGISGLQSEDEADYYCAAWDDSLSAWVFGRGTKLTVLG
notes: also called S-E6 dimer; dimer S-E6
As for B5, the “NT50 (B.1.617.2) (nM)” value in assay [1] turned out to be 0.065 nM. The “NT50 (B.1.351) (nM)” value in assay [2] was 0.32 nM. Also, the “NT50, wild-type SARS-CoV-2 pseudovirus neutralization” value in assay [3] was 0.025 nM. Besides, the “NT50, N501Y+D614G spike pseudovirus neutralization” value in assay [4] was found to be 0.021 nM.
